These results are taken from patent US20100239579A1.

In this experiment the target is human SIRPα (signal regulatory protein alpha), full-length (human) (UniProt P78324). Nature of the experiment: cell-based or functional assay.
human SIRPα (signal regulatory protein alpha), full-length (human), sequence (P78324 31-504): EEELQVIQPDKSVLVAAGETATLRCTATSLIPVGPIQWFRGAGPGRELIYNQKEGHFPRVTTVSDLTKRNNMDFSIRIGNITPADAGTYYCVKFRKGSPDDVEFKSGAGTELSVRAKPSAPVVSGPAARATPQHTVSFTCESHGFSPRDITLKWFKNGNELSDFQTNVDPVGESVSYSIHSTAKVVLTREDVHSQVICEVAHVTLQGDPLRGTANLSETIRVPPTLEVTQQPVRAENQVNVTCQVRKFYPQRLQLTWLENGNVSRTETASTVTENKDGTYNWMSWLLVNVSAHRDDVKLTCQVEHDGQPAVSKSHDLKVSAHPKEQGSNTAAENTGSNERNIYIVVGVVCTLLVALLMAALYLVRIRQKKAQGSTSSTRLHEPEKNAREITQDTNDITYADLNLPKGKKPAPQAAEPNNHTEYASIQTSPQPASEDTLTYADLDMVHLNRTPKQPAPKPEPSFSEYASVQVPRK

For the substance “hCD47-hFc (human CD47 extracellular Ig-V domain fused to the Fc region of human IgG1), Example 8 (from UniProt Q08722 19-142) (Fc fusion)”, the inhibition of FSL-1 mediated TNF-α production of human DCs by hCD47-hFc immobilized on anti-human Fc coated plates amounted to 78 ng/mL and the inhibition of SAC-induced IL-23 secretion in human DCs was 11 ng/mL.
